Source: publication PMC11873932, “PSKH1 kinase activity is differentially modulated via allosteric binding of Ca^2+ sensor proteins” (Proceedings of the National Academy of Sciences of the …, 2025)
One block for each binder: values may come before it.

Columns and labels:
[1] = target: T1, Protein Serine Kinase H1 (PSKH1), recombinant full-length, wild type (human, UniProt P11801 1-424); assay: cell-based or functional assay
T1 sequence (looked up): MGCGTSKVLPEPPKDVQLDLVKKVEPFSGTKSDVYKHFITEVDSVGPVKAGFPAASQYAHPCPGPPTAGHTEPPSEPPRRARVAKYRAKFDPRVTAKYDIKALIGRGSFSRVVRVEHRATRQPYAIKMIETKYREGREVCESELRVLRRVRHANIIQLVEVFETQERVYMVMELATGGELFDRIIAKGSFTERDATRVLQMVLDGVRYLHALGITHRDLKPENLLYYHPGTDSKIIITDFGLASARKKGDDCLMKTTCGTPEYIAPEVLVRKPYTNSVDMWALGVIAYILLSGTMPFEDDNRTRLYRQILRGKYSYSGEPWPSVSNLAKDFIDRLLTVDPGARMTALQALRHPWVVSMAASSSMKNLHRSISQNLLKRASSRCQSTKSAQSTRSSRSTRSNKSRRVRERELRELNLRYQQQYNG

[2] = target: T1, Protein Serine Kinase H1 (PSKH1), …; assay: cross-linking; SDA (NHS-Diazirine, 1 mg/mL) cross-linking mass spectrometry; recombinant full-length PSKH1 with Calmodulin, RCN3 or UNC119B at 1:2 molar ratio; 30 min in the dark at room temperature, UV 365 nm; bands cut from reducing SDS-PAGE, trypsin; conditions: both partners purified

- radiometric kinase assay (ADR1 peptide phosphorylation) of HA-tagged PSKH1 (10 ng) with Ca2+-RCN3 (1 uM) [1]: ~2 fold
B1: Reticulocalbin-3 (RCN3), recombinant (His6-RCN3) (natural protein, human, UniProt Q96D15 21-328, looked up)
chain: KPSPDAGPHGQGRVHQAAPLSDAPHDDAHGNFQYDHEAFLGREVAKEFDQLTPEESQARLGRIVDRMDRAGDGDGWVSLAELRAWIAHTQQRHIRDSVSAAWDTYDTDRDGRVGWEELRNATYGHYAPGEEFHDVEDAETYKKMLARDERRFRVADQDGDSMATREELTAFLHPEEFPHMRDIVIAETLEDLDRNKDGYVQVEEYIADLYSAEPGEEEPAWVQTERQQFRDFRDLNKDGHLDGSEVGHWVLPPAQDQPLVEANHLLHESDTDKDGRLSKAEILGNWNMFVGSQATNYGEDLTRHHDEL

- binding result [2]: binds
B2: UNC119B, recombinant full-length (natural protein)
chain: not shown
notes: UNC119B, human, full length
